Each block holds one binder with its values, some of them ahead of it.
Experiments:
[1] = molecular target: T1, Human IgG1 (human, UniProt P01857-1 1-330 = IgG part); test: SPR, VHH immobilised, IgG as analyte, 1:1 Langmuir
T1 construct: purified IgG of this subclass; also called HuIgG1
Method: (§1) Binding affinity constants of anti IgG-Fc VHH fragments were determined using surface plasmon resonance analysis (SPR) on a BiaCore 3000. For this purpose, purified VHH fragments were immobilised onto the surface of a CM5 sensor chip and subsequently incubated with different concentrations of purified IgG antibodies in HBS-EP buffer. Binding was allowed for 3 minutes at 30 μl/min followed by a dissociation step of 15 minutes at 30 μl/min. Binding curves were fitted according to a 1:1 Langmuir binding model using Biacore software.

[2] = molecular target: T2, Human IgG4 (human, UniProt P01861-1 1-327 = IgG part); test: SPR, VHH immobilised, IgG as analyte, 1:1 Langmuir
T2 construct: purified IgG of this subclass; also called HuIgG4
Method: as §1

[3] = molecular target: T3, Human IgG3 (human, UniProt P01860-1 1-377); test: SPR, VHH immobilised, IgG as analyte, 1:1 Langmuir
T3 construct: purified IgG of this subclass; also called HuIgG3
Method: as §1

[4] = molecular target: T4, Human IgG2 (human, UniProt P01859-1 1-326 = IgG part); test: SPR, VHH immobilised, IgG as analyte, 1:1 Langmuir
T4 construct: purified IgG of this subclass; also called HuIgG2
Method: as §1

[5] = molecular target: T5, Guinea IgG (guinea pig); test: SPR, IgG-Fc-16 immobilised, IgG 50 µg/ml
T5 construct: printed 'Guinea IgG'; also called guinea pig IgG
Method: (§2) Broad binding reactivity of VHH fragment IgG-Fc-16 was determined using surface plasmon resonance analysis (SPR) on a BiaCore 3000. For this purpose, purified VHH fragment IgG-Fc-16 was immobilised onto the surface of a CM5 sensor chip and subsequently incubated with purified IgG antibodies (50 μg/ml) from different species in HBS-EP buffer. Binding was allowed for 1 minute at 5 μl/min followed by a dissociation step of 2.5 minutes at 5 μl/min. Binding signals (Resonance Units) were compared to background signals measured with HBS-EP buffer only. For comparison, the relative reactivity of Protein A and G towards different IgG species is also given.

[6] = molecular target: Rat IgG2c (rat, UniProt P20762 1-329); test: SPR, IgG-Fc-16 immobilised, IgG 50 µg/ml
Method: as §2

[7] = molecular target: T1, Human IgG1; test: SPR, IgG-Fc-16 immobilised, IgG 50 µg/ml
Method: as §2

[8] = molecular target: Mouse IgG 1 (mouse, UniProt P01868 1-324 = IgG part); test: SPR, IgG-Fc-16 immobilised, IgG 50 µg/ml
Method: as §2

[9] = molecular target: Mouse IgG2a (mouse, UniProt P01863 1-330 = IgG part); test: SPR, IgG-Fc-16 immobilised, IgG 50 µg/ml
Method: as §2

[10] = molecular target: Chicken IgG (chicken); test: SPR, IgG-Fc-16 immobilised, IgG 50 µg/ml
Method: as §2

[11] = molecular target: Rat IgG2a (rat, UniProt P20760 1-322); test: SPR, IgG-Fc-16 immobilised, IgG 50 µg/ml
Method: as §2

[12] = molecular target: T2, Human IgG4; test: SPR, IgG-Fc-16 immobilised, IgG 50 µg/ml
Method: as §2

[13] = molecular target: T6, Rat IgG1a (rat, UniProt P20759 1-326); test: SPR, IgG-Fc-16 immobilised, IgG 50 µg/ml
T6 construct: label 'IgG1a' as printed
Method: as §2

[14] = molecular target: T3, Human IgG3; test: SPR, IgG-Fc-16 immobilised, IgG 50 µg/ml
Method: as §2

[15] = molecular target: T4, Human IgG2; test: SPR, IgG-Fc-16 immobilised, IgG 50 µg/ml
Method: as §2

[16] = molecular target: Rat IgG2b (rat, UniProt P20761 1-333); test: SPR, IgG-Fc-16 immobilised, IgG 50 µg/ml
Method: as §2

[17] = molecular target: T7, Human IgG, Fc fragment (human); test: method not given
T7 construct: domain: Fc; the ELISA plates were coated with 'antibody antigens', so whole IgG may have stood there; also called human IgG-Fc domain; IgG Fc domain species: human

T2 sequence (P01861 other isoform, or with tags, fused parts or gaps): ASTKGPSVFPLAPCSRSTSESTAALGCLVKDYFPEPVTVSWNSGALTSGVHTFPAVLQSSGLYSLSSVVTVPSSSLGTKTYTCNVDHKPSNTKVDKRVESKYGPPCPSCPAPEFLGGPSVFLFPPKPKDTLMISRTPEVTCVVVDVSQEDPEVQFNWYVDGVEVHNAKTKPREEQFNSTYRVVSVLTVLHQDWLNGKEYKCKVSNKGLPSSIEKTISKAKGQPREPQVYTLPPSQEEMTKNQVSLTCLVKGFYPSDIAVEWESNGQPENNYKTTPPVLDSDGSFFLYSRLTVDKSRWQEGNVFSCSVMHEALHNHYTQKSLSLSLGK
T3 sequence (P01860 other isoform, or with tags, fused parts or gaps): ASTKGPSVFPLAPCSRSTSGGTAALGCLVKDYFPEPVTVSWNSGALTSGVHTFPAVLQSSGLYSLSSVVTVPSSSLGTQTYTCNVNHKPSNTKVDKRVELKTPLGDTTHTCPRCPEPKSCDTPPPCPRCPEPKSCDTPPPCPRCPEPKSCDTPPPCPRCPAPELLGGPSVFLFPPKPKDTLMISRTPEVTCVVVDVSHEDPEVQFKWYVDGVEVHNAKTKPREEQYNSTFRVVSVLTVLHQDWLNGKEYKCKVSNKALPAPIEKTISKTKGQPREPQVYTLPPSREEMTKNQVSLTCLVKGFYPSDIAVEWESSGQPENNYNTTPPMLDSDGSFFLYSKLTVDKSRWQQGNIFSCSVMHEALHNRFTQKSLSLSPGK
T1 sequence (P01857 other isoform, or with tags, fused parts or gaps): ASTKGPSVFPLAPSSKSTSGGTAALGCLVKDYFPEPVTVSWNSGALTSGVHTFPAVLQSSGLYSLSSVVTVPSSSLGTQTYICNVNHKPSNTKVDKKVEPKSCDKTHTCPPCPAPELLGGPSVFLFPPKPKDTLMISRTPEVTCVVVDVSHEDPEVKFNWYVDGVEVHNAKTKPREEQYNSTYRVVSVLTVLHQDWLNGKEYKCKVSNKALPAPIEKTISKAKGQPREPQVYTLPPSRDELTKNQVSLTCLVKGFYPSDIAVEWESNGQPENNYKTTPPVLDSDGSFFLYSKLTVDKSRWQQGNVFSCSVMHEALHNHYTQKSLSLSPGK
T4 sequence (P01859 other isoform, or with tags, fused parts or gaps): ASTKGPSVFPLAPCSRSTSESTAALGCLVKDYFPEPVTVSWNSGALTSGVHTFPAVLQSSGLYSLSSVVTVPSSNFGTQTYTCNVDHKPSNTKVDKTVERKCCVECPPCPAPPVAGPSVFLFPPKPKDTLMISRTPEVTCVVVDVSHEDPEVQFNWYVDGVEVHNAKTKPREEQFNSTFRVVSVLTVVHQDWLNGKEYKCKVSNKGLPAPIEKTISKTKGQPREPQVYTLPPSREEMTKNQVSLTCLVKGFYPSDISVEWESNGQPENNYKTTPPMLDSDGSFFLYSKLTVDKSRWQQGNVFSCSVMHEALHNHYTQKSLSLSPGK
Chain of Mouse IgG2a (P01863 whole entry): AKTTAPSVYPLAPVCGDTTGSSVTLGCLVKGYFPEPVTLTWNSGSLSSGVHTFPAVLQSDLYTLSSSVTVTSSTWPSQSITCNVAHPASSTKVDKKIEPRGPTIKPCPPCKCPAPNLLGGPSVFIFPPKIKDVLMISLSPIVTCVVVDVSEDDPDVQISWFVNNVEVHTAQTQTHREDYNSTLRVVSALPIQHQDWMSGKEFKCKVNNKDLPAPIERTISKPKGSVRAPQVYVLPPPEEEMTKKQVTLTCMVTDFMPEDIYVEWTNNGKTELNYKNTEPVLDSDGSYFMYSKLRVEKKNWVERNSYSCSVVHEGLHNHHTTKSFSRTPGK
Chain of Rat IgG2b (P20761 whole entry): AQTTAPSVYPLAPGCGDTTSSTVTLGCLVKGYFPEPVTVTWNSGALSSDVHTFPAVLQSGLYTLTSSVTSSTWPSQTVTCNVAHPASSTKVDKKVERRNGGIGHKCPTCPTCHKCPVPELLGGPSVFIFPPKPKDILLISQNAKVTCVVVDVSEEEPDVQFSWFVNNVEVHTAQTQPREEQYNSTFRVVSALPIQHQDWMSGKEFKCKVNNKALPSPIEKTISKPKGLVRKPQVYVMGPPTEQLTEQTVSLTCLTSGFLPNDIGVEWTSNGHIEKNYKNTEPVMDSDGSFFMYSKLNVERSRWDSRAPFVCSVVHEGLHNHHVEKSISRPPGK
T6 sequence (P20759 whole entry): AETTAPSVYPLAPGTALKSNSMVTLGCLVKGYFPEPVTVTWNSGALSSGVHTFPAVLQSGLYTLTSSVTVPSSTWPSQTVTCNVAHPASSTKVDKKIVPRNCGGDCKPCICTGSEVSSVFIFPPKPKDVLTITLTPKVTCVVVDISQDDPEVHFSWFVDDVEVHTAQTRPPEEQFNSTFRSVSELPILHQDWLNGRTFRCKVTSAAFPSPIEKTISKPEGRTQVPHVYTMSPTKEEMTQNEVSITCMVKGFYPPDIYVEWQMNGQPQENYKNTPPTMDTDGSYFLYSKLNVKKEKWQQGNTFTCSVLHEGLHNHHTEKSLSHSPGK
Chain of Rat IgG2a (P20760 whole entry): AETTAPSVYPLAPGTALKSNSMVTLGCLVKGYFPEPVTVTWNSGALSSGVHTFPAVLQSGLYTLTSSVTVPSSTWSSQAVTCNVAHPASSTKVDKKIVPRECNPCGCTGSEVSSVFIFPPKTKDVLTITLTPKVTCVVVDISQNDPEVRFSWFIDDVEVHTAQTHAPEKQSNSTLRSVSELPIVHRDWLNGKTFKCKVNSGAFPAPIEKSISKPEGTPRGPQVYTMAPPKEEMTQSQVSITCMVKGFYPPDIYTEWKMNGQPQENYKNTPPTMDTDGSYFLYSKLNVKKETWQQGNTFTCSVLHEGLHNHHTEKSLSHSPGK
Chain of Rat IgG2c (P20762 whole entry): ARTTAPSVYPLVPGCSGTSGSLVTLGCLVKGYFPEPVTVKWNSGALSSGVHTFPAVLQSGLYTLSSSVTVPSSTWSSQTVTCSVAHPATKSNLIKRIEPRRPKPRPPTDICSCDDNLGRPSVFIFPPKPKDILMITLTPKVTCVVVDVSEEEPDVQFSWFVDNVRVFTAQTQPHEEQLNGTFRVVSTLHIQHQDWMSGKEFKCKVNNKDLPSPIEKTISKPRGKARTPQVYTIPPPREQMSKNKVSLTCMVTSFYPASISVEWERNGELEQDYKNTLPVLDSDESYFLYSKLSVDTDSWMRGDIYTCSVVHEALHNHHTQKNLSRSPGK

Ka [1]: 1.47e+08 M⁻¹
Kd [1]: 6.81 nM
koff [1]: 0.000211 s⁻¹
kon [1]: 31000 M⁻¹ s⁻¹
Ka [2]: 5.89e+08 M⁻¹
Kd [2]: 1.7 nM
koff [2]: 0.000107 s⁻¹
kon [2]: 62900 M⁻¹ s⁻¹
Ka [3]: 4.69e+07 M⁻¹
Kd [3]: 21.3 nM
koff [3]: 0.000849 s⁻¹
kon [3]: 39800 M⁻¹ s⁻¹
Ka [4]: 6.17e+07 M⁻¹
Kd [4]: 16.2 nM
koff [4]: 0.000355 s⁻¹
kon [4]: 21900 M⁻¹ s⁻¹
Binding signal (RU) [5]: 577 RU
Binding signal (RU) [6]: 2130 RU
Binding signal (RU) [7]: 1570 RU
Binding signal (RU) [8]: 1610 RU
Binding signal (RU) [9]: 427 RU
Binding signal (RU) [10]: -3.1 RU
Binding signal (RU) [11]: 444 RU
Binding signal (RU) [12]: 710 RU
Binding signal (RU) [13]: 431 RU
Binding signal (RU) [14]: 499 RU
Binding signal (RU) [15]: 795 RU
Binding signal (RU) [16]: 512 RU
B1: IgG-Fc-16 (VHH)
VHH: QVQLQESGGGLVQAGGSLRLSCAASGRAVGNYIIGWFRQAPGKEREFVATTTRDGGSTFYADSVKGRFTISRDNAKNTVNLQMNSLEPEDTAVYYCAAKSWSVPLRPTSADFDSWGQGTQVTVSS

Ka [17]: ≥ 4e+09 M⁻¹
B2: IgG-Fc-10 (VHH)
VHH: QVQLQESGGGLVQAGDSLRISCRASGLTVNDLYMGWFRQAPGKEREFVGRVTPGDNTDYTYYVDSVKGRFTISRDSAKNTVYLQMNSLKLEDTAVYLCAGRRFGSSEWDYWGQGTQVTVSS

Ka [1]: 1.74e+09 M⁻¹
Kd [1]: 0.575 nM
koff [1]: 0.000208 s⁻¹
kon [1]: 361000 M⁻¹ s⁻¹
Ka [2]: 3.32e+09 M⁻¹
Kd [2]: 0.302 nM
koff [2]: 5.91e-05 s⁻¹
kon [2]: 196000 M⁻¹ s⁻¹
Ka [3]: 2.09e+07 M⁻¹
Kd [3]: 47.8 nM
koff [3]: 0.000272 s⁻¹
kon [3]: 5690 M⁻¹ s⁻¹
Ka [4]: 5.76e+08 M⁻¹
Kd [4]: 1.73 nM
koff [4]: 0.000212 s⁻¹
kon [4]: 122000 M⁻¹ s⁻¹
B3: IgG-Fc-01 (VHH)
VHH: QVQLQESGGGLVQPGGSLRLSCAASGGTSIRIGSINALAWYRQALGNQRELVAAVTEGGSTNYADFVKGRFTISRDNAQNMMYLQMNSLKPEDTAVYYCNADKVLYSRGGYYSVANDLWGQGTQVTVSS
notes: also called IgG-Fc-1
